Drawing on the RNAGym collection of RNA variant scans (doi:10.1093/molbev/msab373), this text covers reverse-splicing fitness for 84 variants.

B1: Azoarcus group I ribozyme (parent)
chain: GUGCCUUGCGCCGGGAAACCACGCAAGGGAUGGUGUCAAAUUCGGCGAAACCUAAGCGCCCGCCCGGGCGUAUGGCAACGCCGAGCCAAGCUUCGGCGCCUGCGCCGAUGAAGGUGUAGAGACUAGACGGCACCCACCUAAGGCAAACGCUAUGGUGAAGGCAUAGUCCAGGGAGUGGCGAAAGUCACACAAACCGG

The series covers variants of B1. As to the kind of experiment: reverse-splicing fitness (ratio to wild type); higher = more active; in vitro selection; Mg2+ level not given. An outline of the steps:
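An in vitro group I ribozyme library with randomized positions was T7-transcribed and gel-purified. In triplicate, 10 pmol RNA in EPPS pH 7.5 was reacted with 50 pmoles of a 30-nt RNA substrate for 1 h at 37 °C across several added MgCl2 levels (1–48 mM), then stopped with EDTA. Products were reverse transcribed from a substrate-complementary primer, PCR-amplified and sequenced (HiSeq 4000). Fitness is a variant's read proportion after selection over that before, normalised to wild type.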
On to C82U A111U A145U U176C, for which the reverse-splicing fitness came to 0.154.

As to C82U A111U A145U U176A, the reverse-splicing fitness amounted to 0.112.

For C82U A111U A145U U176G, the reverse-splicing fitness was determined as 0.0313.

Take C82U A120C A145C C169U: the reverse-splicing fitness was 0.0225.

In the case of C82U A120C A145C C169G, the reverse-splicing fitness turned out to be 0.00713.

C82U A120C A145C C169A: the reverse-splicing fitness is 0.00538.

Turning to C82U A111U C150U C169A U176C, the reverse-splicing fitness amounted to 0.0125.

As to C82U A111U C150U C169A U176G, the reverse-splicing fitness was 0.00643.

With C82U A111U C150U C169A U176A, the reverse-splicing fitness was 0.0138.

As for C82U A120C A145C C150U C169A U176G, the reverse-splicing fitness was 0.00409.

In the case of C82U A120C A145C C150U C169A U176A, the reverse-splicing fitness is 0.00715.

Consider C82U A120C A145C C150U C169A U176C, for which the reverse-splicing fitness was determined as 0.00498.

Regarding C82U A120C A145U C150U C169U U176G, the reverse-splicing fitness amounted to 0.00397.

With C82U A120C A145U C150U C169U U176A, the reverse-splicing fitness is 0.0148.

Regarding C82U A120C A145U C150U C169U U176C, the reverse-splicing fitness was 0.0144.

Take C82U A120C A145U: the reverse-splicing fitness came out at 0.155.

For C82U A120C A145C, the reverse-splicing fitness worked out at 0.149.

As to C82U A120C A145G, the reverse-splicing fitness came out at 0.169.

As for C82U A111U A145U C150A U176C, the reverse-splicing fitness worked out at 0.022.

On to C82U A111U A145U C150A U176A, for which the reverse-splicing fitness came out at 0.0154.

Regarding C82U A111U A145U C150A U176G, the reverse-splicing fitness came out at 0.00782.

Turning to C82U A111U C150G C169G U176G, the reverse-splicing fitness amounted to 0.00532.

For the variant C82U A111U C150G C169G U176A, the reverse-splicing fitness was determined as 0.00711.

Regarding C82U A111U C150G C169G U176C, the reverse-splicing fitness was 0.00452.

In the case of C82U A120C A145C C150U U176G, the reverse-splicing fitness turned out to be 0.00608.

In the case of C82U A120C A145C C150U U176C, the reverse-splicing fitness worked out at 0.0218.

As for C82U A120C A145C C150U U176A, the reverse-splicing fitness was 0.0173.

As for C82U A111U A145U C169U, the reverse-splicing fitness amounted to 0.0106.

Turning to C82U A111U A145U C169A, the reverse-splicing fitness worked out at 0.00706.

Turning to C82U A111U A145U C169G, the reverse-splicing fitness amounted to 0.00791.

With C82U A120C A145G C169G, the reverse-splicing fitness came to 0.00711.

Turning to C82U A120C A145G C169A, the reverse-splicing fitness was found to be 0.00815.

In the case of C82U A120C A145G C169U, the reverse-splicing fitness worked out at 0.0217.

Consider C82U A120C A145C C150A C169A U176G, for which the reverse-splicing fitness came to 0.00369.

Take C82U A120C A145C C150A C169A U176C: the reverse-splicing fitness is 0.00429.

Turning to C82U A120C A145C C150A C169A U176A, the reverse-splicing fitness came to 0.00849.

In the case of C82U A120C A145C C150A C169U U176C, the reverse-splicing fitness was 0.00799.

For C82U A120C A145C C150A C169U U176A, the reverse-splicing fitness amounted to 0.0146.

Regarding C82U A120C A145C C150A C169U U176G, the reverse-splicing fitness came to 0.00376.

For C82U A120C A145G U176C, the reverse-splicing fitness stood at 0.0715.

For the variant C82U A120C A145G U176A, the reverse-splicing fitness was determined as 0.0488.

With C82U A120C A145G U176G, the reverse-splicing fitness was 0.00954.

As for C82U A120C A145U C150U C169G U176A, the reverse-splicing fitness was 0.00914.

As for C82U A120C A145U C150U C169G U176G, the reverse-splicing fitness was 0.00405.

Consider C82U A120C A145U C150U C169G U176C, for which the reverse-splicing fitness came to 0.00724.

Regarding C82U A120C A145C C150U C169G U176C, the reverse-splicing fitness came to 0.00645.

As for C82U A120C A145C C150U C169G U176G, the reverse-splicing fitness is 0.00398.

Take C82U A120C A145C C150U C169G U176A: the reverse-splicing fitness worked out at 0.0142.

On to C82U A120C A145C C150A C169G, for which the reverse-splicing fitness came to 0.00551.

Turning to C82U A120C A145C C150A C169U, the reverse-splicing fitness amounted to 0.00777.

Turning to C82U A120C A145C C150A C169A, the reverse-splicing fitness came to 0.00632.

Regarding C82U A111U C169A U176A, the reverse-splicing fitness is 0.0141.

Take C82U A111U C169A U176G: the reverse-splicing fitness was 0.00543.

For C82U A111U C169A U176C, the reverse-splicing fitness was 0.02.

Consider C82U A120C A145C C150G C169G, for which the reverse-splicing fitness turned out to be 0.00584.

In the case of C82U A120C A145C C150G C169A, the reverse-splicing fitness was 0.00723.

For C82U A120C A145C C150G C169U, the reverse-splicing fitness worked out at 0.0107.

With C82U A111U U176G, the reverse-splicing fitness was determined as 0.0233.

For the variant C82U A111U U176A, the reverse-splicing fitness is 0.107.

For the variant C82U A111U U176C, the reverse-splicing fitness was found to be 0.173.

Take C82U A111U A145G C169A: the reverse-splicing fitness was 0.00999.

With C82U A111U A145G C169U, the reverse-splicing fitness worked out at 0.0114.

As for C82U A111U A145G C169G, the reverse-splicing fitness was 0.00856.

Take C82U A120C A145C C150G C169G U176G: the reverse-splicing fitness stood at 0.00305.

As to C82U A120C A145C C150G C169G U176C, the reverse-splicing fitness came out at 0.00518.

C82U A120C A145C C150G C169G U176A: the reverse-splicing fitness came out at 0.00773.

In the case of C82U A120C A145C C150U C169U U176C, the reverse-splicing fitness came to 0.0109.

With C82U A120C A145C C150U C169U U176A, the reverse-splicing fitness stood at 0.0137.

Regarding C82U A120C A145C C150U C169U U176G, the reverse-splicing fitness was 0.00398.

Consider C82U A111U A145U C150U C169G U176A, for which the reverse-splicing fitness worked out at 0.0107.

In the case of C82U A111U A145U C150U C169G U176G, the reverse-splicing fitness is 0.00583.

On to C82U A111U A145U C150U C169G U176C, for which the reverse-splicing fitness was 0.0127.

With C82U A120C A145G C150G U176G, the reverse-splicing fitness was found to be 0.00605.

On to C82U A120C A145G C150G U176A, for which the reverse-splicing fitness worked out at 0.00924.

As to C82U A120C A145G C150G U176C, the reverse-splicing fitness was 0.0157.

On to C82U A111U A145U C150G C169A U176A, for which the reverse-splicing fitness is 0.0112.

C82U A111U A145U C150G C169A U176C: the reverse-splicing fitness was 0.00962.

As for C82U A111U A145U C150G C169A U176G, the reverse-splicing fitness was determined as 0.00684.

For the variant C82U A120C A145U C150U C169A, the reverse-splicing fitness came out at 0.0082.

For C82U A120C A145U C150U C169G, the reverse-splicing fitness came out at 0.00708.

Take C82U A120C A145U C150U C169U: the reverse-splicing fitness was determined as 0.0166.

On to C82U A111U C169G U176A, for which the reverse-splicing fitness was 0.0162.

Turning to C82U A111U C169G U176C, the reverse-splicing fitness was determined as 0.0183.

In the case of C82U A111U C169G U176G, the reverse-splicing fitness worked out at 0.0052.
